The test deals with FLAG-WT CFTR (cystic fibrosis transmembrane conductance regulator) (UniProt P13569 1-1480). As to the kind of experiment: pull-down.
Sequence of FLAG-WT CFTR (cystic fibrosis transmembrane conductance regulator) (P13569 whole entry): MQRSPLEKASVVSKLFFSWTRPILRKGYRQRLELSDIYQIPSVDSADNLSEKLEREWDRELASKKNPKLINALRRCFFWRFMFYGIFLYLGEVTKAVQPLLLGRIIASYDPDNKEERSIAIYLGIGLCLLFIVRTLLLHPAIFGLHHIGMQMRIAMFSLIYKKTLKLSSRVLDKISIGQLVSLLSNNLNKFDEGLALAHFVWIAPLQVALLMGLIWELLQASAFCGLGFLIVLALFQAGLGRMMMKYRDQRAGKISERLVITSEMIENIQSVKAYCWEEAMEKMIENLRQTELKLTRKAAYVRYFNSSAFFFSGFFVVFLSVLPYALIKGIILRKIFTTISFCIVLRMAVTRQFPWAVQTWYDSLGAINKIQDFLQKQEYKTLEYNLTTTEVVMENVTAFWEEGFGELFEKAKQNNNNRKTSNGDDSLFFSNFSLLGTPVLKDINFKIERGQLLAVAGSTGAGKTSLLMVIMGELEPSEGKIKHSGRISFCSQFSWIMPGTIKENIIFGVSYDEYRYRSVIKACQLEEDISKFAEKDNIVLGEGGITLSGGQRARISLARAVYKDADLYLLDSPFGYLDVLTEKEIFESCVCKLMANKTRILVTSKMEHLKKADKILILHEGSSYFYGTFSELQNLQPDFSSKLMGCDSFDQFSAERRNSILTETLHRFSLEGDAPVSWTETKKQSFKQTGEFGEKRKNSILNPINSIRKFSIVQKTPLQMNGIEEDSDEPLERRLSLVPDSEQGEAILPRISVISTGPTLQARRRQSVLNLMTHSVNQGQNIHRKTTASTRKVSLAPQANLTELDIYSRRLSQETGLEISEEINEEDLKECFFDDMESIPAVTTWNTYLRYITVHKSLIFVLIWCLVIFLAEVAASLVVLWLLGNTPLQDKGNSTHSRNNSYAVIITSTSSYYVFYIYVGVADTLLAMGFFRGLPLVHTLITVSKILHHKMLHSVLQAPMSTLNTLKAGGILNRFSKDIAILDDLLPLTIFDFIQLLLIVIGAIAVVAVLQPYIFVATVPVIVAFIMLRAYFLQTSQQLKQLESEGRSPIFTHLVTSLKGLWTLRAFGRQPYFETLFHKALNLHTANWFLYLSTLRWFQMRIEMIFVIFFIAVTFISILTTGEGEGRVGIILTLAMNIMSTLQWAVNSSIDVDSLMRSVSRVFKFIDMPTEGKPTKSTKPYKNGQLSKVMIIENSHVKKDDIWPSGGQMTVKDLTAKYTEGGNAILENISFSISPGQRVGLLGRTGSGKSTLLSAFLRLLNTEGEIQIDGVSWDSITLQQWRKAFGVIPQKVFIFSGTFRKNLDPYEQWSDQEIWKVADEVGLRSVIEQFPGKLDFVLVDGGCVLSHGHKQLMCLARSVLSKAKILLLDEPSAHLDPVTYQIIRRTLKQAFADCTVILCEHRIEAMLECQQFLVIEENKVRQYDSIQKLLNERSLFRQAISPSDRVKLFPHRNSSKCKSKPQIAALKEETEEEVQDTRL

B1: GST-His-S-Stx17ΔC (Stx17 1–228) (domain or fragment, UniProt P56962 1-228, looked up)
chain: MSEDEEKVKLRRLEPAIQKFIKIVIPTDLERLRKHQINIEKYQRCRIWDKLHEEHINAGRTVQQLRSNIREIEKLCLKVRKDDLVLLKRMIDPVKEEASAATAEFLQLHLESVEELKKQFNDEETLLQPPLTRSMTVGGAFHTTEAEASSQSLTQIYALPEIPQDQNAAESWETLEADLIELSQLVTDFSLLVNSQQEKIDSIADHVNSAAVNVEEGTKNLGKAAKYK
As for B1, the binding result is reported as “binds”.
